The source of these data is PMC6856157.

In the assay the target is V1N, hybrid peptide of the collagen domain (POG)8 and the cell penetrating peptide domain (RRG)2, without the FITC reporter. In words: circular dichroism; V1N/siRNA complex in Milli-Q water, 90 uM V1N and 5 uM siRNA, equilibrated 30 min at 25 °C or 37 °C; positive peak at 224 nm. (In general: Circular dichroism is the unequal absorption of left and right circularly polarised light.)

“V1N, hybrid peptide of the collagen domain (POG)8 and the cell penetrating peptide domain (RRG)2, without the FITC reporter” returned a stoichiometry N of 3.

By stoichiometry N is commonly meant the number of molecules, sites or subunits per partner or assembly.
